Data taken from paper PMC8791620 (Science Advances, 2022).

T1: Trs23 (subunit of core TRAPP/TRAPPI in TRAPPII) (S. cerevisiae, UniProt Q03784 1-219)
T1 sequence (looked up): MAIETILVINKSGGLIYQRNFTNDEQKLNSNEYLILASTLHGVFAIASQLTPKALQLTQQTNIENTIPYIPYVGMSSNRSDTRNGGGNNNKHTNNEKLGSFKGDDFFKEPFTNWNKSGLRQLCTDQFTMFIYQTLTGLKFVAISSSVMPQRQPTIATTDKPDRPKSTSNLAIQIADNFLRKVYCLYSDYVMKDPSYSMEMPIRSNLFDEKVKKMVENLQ

T2: Bet3 (subunit of core TRAPP/TRAPPI in TRAPPII) (S. cerevisiae, UniProt P36149 1-193)
T2 sequence (looked up): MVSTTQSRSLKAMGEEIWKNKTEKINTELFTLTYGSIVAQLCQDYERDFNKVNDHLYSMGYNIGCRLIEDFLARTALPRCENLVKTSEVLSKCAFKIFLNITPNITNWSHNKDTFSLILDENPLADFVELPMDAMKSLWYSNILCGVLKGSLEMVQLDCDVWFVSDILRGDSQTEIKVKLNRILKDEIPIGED

T3: Trs120 (3xFLAG-tagged, subunit of TRAPPII) (S. cerevisiae, UniProt Q04183 1-1289)
T3 sequence: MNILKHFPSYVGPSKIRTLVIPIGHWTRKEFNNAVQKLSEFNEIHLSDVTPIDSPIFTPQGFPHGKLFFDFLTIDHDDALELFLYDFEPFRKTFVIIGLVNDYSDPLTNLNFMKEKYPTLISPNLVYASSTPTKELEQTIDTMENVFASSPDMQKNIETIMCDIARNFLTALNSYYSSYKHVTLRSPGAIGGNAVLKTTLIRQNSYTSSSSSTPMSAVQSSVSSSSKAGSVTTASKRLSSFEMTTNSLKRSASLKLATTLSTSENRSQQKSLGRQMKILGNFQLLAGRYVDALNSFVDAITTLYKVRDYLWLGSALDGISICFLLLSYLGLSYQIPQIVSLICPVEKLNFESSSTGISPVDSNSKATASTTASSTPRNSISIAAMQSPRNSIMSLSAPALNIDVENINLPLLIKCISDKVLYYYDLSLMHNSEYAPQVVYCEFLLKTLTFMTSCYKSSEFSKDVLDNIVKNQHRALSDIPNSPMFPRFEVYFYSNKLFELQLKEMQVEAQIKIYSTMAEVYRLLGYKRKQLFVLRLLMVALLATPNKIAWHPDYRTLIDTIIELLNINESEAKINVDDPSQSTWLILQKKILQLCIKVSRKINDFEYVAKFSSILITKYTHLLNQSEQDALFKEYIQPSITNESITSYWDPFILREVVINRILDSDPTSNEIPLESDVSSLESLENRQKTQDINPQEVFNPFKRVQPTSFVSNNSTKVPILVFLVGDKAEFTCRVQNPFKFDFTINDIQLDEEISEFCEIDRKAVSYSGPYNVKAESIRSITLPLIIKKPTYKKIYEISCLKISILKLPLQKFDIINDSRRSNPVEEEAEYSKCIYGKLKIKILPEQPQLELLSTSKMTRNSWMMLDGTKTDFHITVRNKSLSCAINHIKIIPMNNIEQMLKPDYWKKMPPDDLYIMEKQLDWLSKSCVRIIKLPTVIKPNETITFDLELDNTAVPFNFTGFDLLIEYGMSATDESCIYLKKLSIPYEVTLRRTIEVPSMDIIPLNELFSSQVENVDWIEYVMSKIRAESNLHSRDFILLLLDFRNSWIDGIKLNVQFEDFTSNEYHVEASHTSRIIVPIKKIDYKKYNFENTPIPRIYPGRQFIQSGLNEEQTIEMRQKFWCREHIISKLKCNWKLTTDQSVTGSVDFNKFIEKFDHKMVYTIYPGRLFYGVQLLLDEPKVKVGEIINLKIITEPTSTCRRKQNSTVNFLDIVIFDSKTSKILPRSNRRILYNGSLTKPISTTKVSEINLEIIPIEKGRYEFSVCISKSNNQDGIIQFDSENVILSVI

B1: His-sumo-Ypt32 (wild type) (enzyme, S. cerevisiae, UniProt P51996 1-222, looked up)
chain: MSNEDYGYDYDYLFKIVLIGDSGVGKSNLLSRFTTDEFNIESKSTIGVEFATRTIEVENKKIKAQIWDTAGQERYRAITSAYYRGAVGALIVYDISKSSSYENCNHWLTELRENADDNVAVGLIGNKSDLAHLRAVPTDEAKNFAMENQMLFTETSALNSDNVDKAFRELIVAIFQMVSKHQVDLSGSGTNNMGSNGAPKGPTISLTPAPKEDKKKKSSNCC
B2: Bet5 (subunit of core TRAPP/TRAPPI in TRAPPII) (natural protein, S. cerevisiae, UniProt Q03630 1-159, looked up)
chain: MGIYSFWIFDRHCNCIFDREWTLASNSASGTINSKQNEEDAKLLYGMIFSLRSITQKLSKGSVKNDIRSISTGKYRVHTYCTASGLWFVLLSDFKQQSYTQVLQYIYSHIYVKYVSNNLLSPYDFAENENEMRGQGTRKITNRNFISVLESFLAPMVNQ
B3: Trs31 (subunit of core TRAPP/TRAPPI in TRAPPII) (natural protein, S. cerevisiae, UniProt Q03337 1-283, looked up)
chain: MSQRIIQPSASDQQFPGKSDGYEYTVGPKQAITSEASTTYIPSRIYSESLLFKRQEASLSAMAFLFQEMISQLHRTCKTAGDFETKLSDYGHNIGIRLLELLNFRASVSPSSLPRASAFLSQNESSSKLSNASNSPGMLANSSTATSASANERLQEKQTESLSNYITKMRRRDLKILDILQFIHGTLWSYLFNHVSDDLVKSSERDNEYMIVDNFPTLTQFIPGENVSCEYFVCGIIKGFLFNAGFPCGVTAHRMPQGGHSQRTVYLIQFDRQVLDREGLRFG

Columns and labels:
[1] = target: B3; assay: cryo-EM structure
[2] = target: T1, Trs23 (subunit of core TRAPP/TRAPPI in …); assay: cryo-EM structure
[3] = target: T2, Bet3 (subunit of core TRAPP/TRAPPI in …); assay: cryo-EM structure
[4] = target: T3, Trs120 (3xFLAG-tagged, subunit of …); assay: cross-linking

Binder: B1
binding result [1]: binds

Binder: B2
binding result [2]: binds
binding result [3]: binds

Binder: B3
binding result [4]: binds
